Reference: patent publication US20230067757A1 (NOVAROCK BIOTHERAPEUTICS, published 2023)
Read-outs that look alike come from different tables or passages of the source.

What was measured:
[1] = target: T1, human claudin 18 isoform 2 (claudin 18.2) (human); assay: imaging, PATU8988S cells (endogenous CLDN18.2); +++ = EC50 between 2 nM and 20 nM
T1 construct: Recombinant on transfected CHO cells (CHO-CLDN18.2) or endogenous on tumor cell lines PATU8988S, NUGC-4, KATOIII; the cell line is named under assay; also called CLDN18.2
Procedure: (§1) Tumor cells were plated in complete media containing RPMI1640 with +10% FBS, then incubated overnight at 37° C., Claudin18.2 antibodies were serial diluted and added to the assay plates, incubated at 4° C. for 2 hours, followed by fixing cells and further staining the cells for 30 minutes with Alexa Fluor® 488 Goat Anti-Human IgG (H+L) secondary antibody (invitrogen Cat #A-11013) for detection. The binding was assessed by imaging the cells and quantifying the fluorescence intensity using a Biotek Cytation.

[2] = target: T1, human claudin 18 isoform 2 (claudin …); assay: cell-based or functional assay
[3] = target: T1, human claudin 18 isoform 2 (claudin …); assay: immunofluorescence imaging, CHO-CLDN18.2 cells (FIG. 3C); Table 6 prints 1.3
Procedure: as §1, with “The specific cellular binding affinity of anti-Claudin18.2 antibodies was tested on CHO-CLDN18.2 (transfected CHO cell expressing recombinant human CLDN18.2) and CHO-CLDN18.1 (transfected CHO cell expressing recombinant human CLDN18.1) cells. The” for “Tumor”, “F12” for “RPMI1640”, “10%” for “+10%”, “anti-Claudin18.2” for “Claudin18.2”, “antibody, invitrogen” for “antibody (invitrogen”, “#A-11013” for “#A-11013)”

[4] = target: T2, human claudin 18 isoform 1 (claudin 18.1) (human, UniProt P56856 1-261); assay: immunofluorescence imaging on CHO cells expressing human CLDN18.1, antibody at 10 µg/ml
T2 construct: Recombinant on transfected CHO cells (CHO-CLDN18.1); also called CLDN18.1
T2 sequence (P56856 whole entry, canonical isoform): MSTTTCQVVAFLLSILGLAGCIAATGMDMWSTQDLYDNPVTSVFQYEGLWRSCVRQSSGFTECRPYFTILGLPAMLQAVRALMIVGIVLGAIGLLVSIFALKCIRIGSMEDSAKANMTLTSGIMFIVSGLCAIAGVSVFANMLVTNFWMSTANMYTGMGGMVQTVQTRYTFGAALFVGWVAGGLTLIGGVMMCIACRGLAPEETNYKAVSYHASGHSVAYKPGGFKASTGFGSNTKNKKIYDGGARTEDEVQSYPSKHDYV
Procedure: as §1, with “The specific cellular binding affinity of anti-Claudin18.2 antibodies was tested on CHO-CLDN18.2 (transfected CHO cell expressing recombinant human CLDN18.2) and CHO-CLDN18.1 (transfected CHO cell expressing recombinant human CLDN18.1) cells. The” for “Tumor”, “F12” for “RPMI1640”, “10%” for “+10%”, “anti-Claudin18.2” for “Claudin18.2”, “antibody, invitrogen” for “antibody (invitrogen”, “#A-11013” for “#A-11013)”

[5] = target: T1, human claudin 18 isoform 2 (claudin …); assay: cell-based or functional assay; remark: listed apart in the source
[6] = target: T1, human claudin 18 isoform 2 (claudin …); assay: immunofluorescence imaging, CHO-CLDN18.2 cells, serial dilution
Procedure, shortened: (§2)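 Binding on CHO cells transfected with human CLDN18.2, with human CLDN18.1 transfectants as counter-screen, plated overnight at 37° C. Serially diluted antibodies incubated 2 h at 4° C; fixed cells stained 30 min with Alexa Fluor 488 anti-human IgG and fluorescence intensity quantified by imaging.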

[7] = target: T1, human claudin 18 isoform 2 (claudin …); assay: imaging, PATU8988S cells (endogenous CLDN18.2); ++++ = EC50 less than 2 nM
[8] = target: T1, human claudin 18 isoform 2 (claudin …); assay: cell-based or functional assay; remark: listed apart in the source
[9] = target: T2, human claudin 18 isoform 1 (claudin …); assay: imaging, CHO-CLDN18.1 cells, single concentration (FIG. 3A)
Procedure, shortened: as §2

[10] = target: T2, human claudin 18 isoform 1 (claudin …); assay: imaging, CHO-CLDN18.1 cells, dose titration
Procedure: as §1, with “The specific cellular binding affinity of anti-Claudin18.2 antibodies was tested on CHO-CLDN18.2 (transfected CHO cell expressing recombinant human CLDN18.2) and CHO-CLDN18.1 (transfected CHO cell expressing recombinant human CLDN18.1) cells. The” for “Tumor”, “F12” for “RPMI1640”, “10%” for “+10%”, “anti-Claudin18.2” for “Claudin18.2”, “antibody, invitrogen” for “antibody (invitrogen”, “#A-11013” for “#A-11013)”

[11] = target: T1, human claudin 18 isoform 2 (claudin …); assay: immunofluorescence imaging, CHO-CLDN18.2 cells; low end tied to Hu-18 by Table 6 (0.8)
Procedure: as §1, with “The specific cellular binding affinity of anti-Claudin18.2 antibodies was tested on CHO-CLDN18.2 (transfected CHO cell expressing recombinant human CLDN18.2) and CHO-CLDN18.1 (transfected CHO cell expressing recombinant human CLDN18.1) cells. The” for “Tumor”, “F12” for “RPMI1640”, “10%” for “+10%”, “anti-Claudin18.2” for “Claudin18.2”, “antibody, invitrogen” for “antibody (invitrogen”, “#A-11013” for “#A-11013)”

[12] = target: T1, human claudin 18 isoform 2 (claudin …); assay: immunofluorescence imaging, CHO-CLDN18.2 cells (FIG. 3B); Table 5 prints 3.0
Procedure: as §1, with “The specific cellular binding affinity of anti-Claudin18.2 antibodies was tested on CHO-CLDN18.2 (transfected CHO cell expressing recombinant human CLDN18.2) and CHO-CLDN18.1 (transfected CHO cell expressing recombinant human CLDN18.1) cells. The” for “Tumor”, “F12” for “RPMI1640”, “10%” for “+10%”, “anti-Claudin18.2” for “Claudin18.2”, “antibody, invitrogen” for “antibody (invitrogen”, “#A-11013” for “#A-11013)”

[13] = target: T1, human claudin 18 isoform 2 (claudin …); assay: imaging, PATU8988S cells (endogenous CLDN18.2); ++ = EC50 between 20 nM and 100 nM
[14] = target: T1, human claudin 18 isoform 2 (claudin …); assay: immunofluorescence imaging, CHO-CLDN18.2 cells (FIG. 3C); Table 5 prints 0.8
Procedure: as §1, with “The specific cellular binding affinity of anti-Claudin18.2 antibodies was tested on CHO-CLDN18.2 (transfected CHO cell expressing recombinant human CLDN18.2) and CHO-CLDN18.1 (transfected CHO cell expressing recombinant human CLDN18.1) cells. The” for “Tumor”, “F12” for “RPMI1640”, “10%” for “+10%”, “anti-Claudin18.2” for “Claudin18.2”, “antibody, invitrogen” for “antibody (invitrogen”, “#A-11013” for “#A-11013)”

binding result [4]	EC50 [6] [nM]	EC50 [7] [nM]	binding result [10]	Binder	endocytosis derived cell toxicity EC50, CHO-18.2 cells (anti-IgG Fc-MMAF co-internalization) [8] [nM]	also measured
no binding (tested: 10 µg/ml)	1.3			Hu-3 (antibody, V domains shown) VH: QLQLQESGPGLVKPSETLSLTCTVSDGPISSSRYYWGWIRQPPGKGLEWIGSFHYSGSTYYNPSLKSRVTISADTSKNQFSLKLSSVTAADTAVYYCARLVLRYFDWLGFFDLWGRGTLVTVSS VL: EIVMTQSPAILSLSPGERAALSCRASQSVRSSYLSWYQQKPGQAPRLLIYGTSTRATGIPARFSGSGSGTDFTLTISSLQPEDFAVYYCQQDYNLPITFGQGTRLEFK		EC50 [1]: 2 to 20 nM; ADCC EC50, CHO-18.2 target cells (mouse FcγRIV reporter bioluminescence) [2]: 3.11 nM; EC50 [3]: 1.34 nM; endocytosis derived cell toxicity EC50, CHO-18.2 cells (anti-IgG Fc-MMAF co-internalization) [5]: 1.23 nM
	0.8	< 2		Ms16 (antibody, V domains shown) VH: QVQLQQSGAELVRPGTSVKVSCKASGYAFTNYLIEWIKQRPGQGLEWIGVINPGSGGTNYNEKLKGKATLTADKSSSTAYMQLSSLTSGDSAVYFCARYVKGNALDYWGQGTSVTVSS VL: DIVMTQSPSSLTVTAGEKVTLSCKSSQSLFNSGNQKNYLTWYQQKPGQPPKLLIYWASTRESGVPDRFTGSGSGTDFTLTISSVQAEDLAIYYCQNSYSFPLTFGAGTKLELT	1	binding result [9]: no binding (tested: 10 µg/ml)
	6.2		no binding (tested: 133.4 nM)	Hu-17 (antibody, V domains shown, Human V regions (Trianni mice)) VH: QVQLVQSGAEVKRPGASVKVSCRVSGYTLTALSMYWVRQAPGKGLEWMGGFDPEDGETIYAQKFQGRVTMTEDTSTGTAYMELSSLKSEDTAVYYCATRLRYFDWNYWGQGTPVTVSS VL: DIVMTQTPLSSPVTLGQPASISCRSSQSLVHSDGNTYLSWLQQRPGQPPRLLIYKVSKRFSGVPDRFSGSGAGTDFTLKISRVEAEDVGVYYCTQGTQFPRTFGQGTKVEIK		
	0.8		no binding (tested: 133.4 nM)	Hu-18 (antibody, V domains shown, Human V regions (Trianni mice)) VH: QVQLVQSGAEVKKPGASVKVSCRVSGYTLSALSMYWVRQAPGKGLEWMGGFDPEDGKTIYAQKFQGRVTMTEDTSTGTAYMELSSLRSEDTAIYYCATTLRYFDWNYWGQGTPVTVSS VL: DIVMTQTPLSSPVTLGQPASISCRSSQSLVHSDGNTYLSWLQQRPGQPPRLLIYKVSKRFSGVPDRFSGSGAGTDFTLKISRVEAEDVGVYYCTQGTQFPRTFGQGTKVEIK		EC50 [11]: 0.77 nM
no binding (tested: 10 µg/ml)	3			Ms2 (antibody, V domains shown) VH: QVQLKESGPGLVAPSQSLSITCTVSGFSLTSYGVHWVRQPPGKGLEWLGVIWAGGSTNYNSALMSRLSISKDNSKSQVFLKMNSLQTDDTAMYYCARDFTTATGFDYWGQGTTLTVSS VL: DIVMTQSPSSLSVSAGEKVTMSCKSSQSLLNSGNQKNYLAWYQQKPGQPPKLLIYGASTRESGVPDRFTGSGSGTDFTLTISSVQAEDLAVYYCQNDHSYPFTFGSGTKLEIK	2.55	EC50 [12]: 2.8 nM; EC50 [13]: 20 to 100 nM
no binding (tested: 10 µg/ml)	0.8	< 2		Ms4 (antibody, V domains shown) VH: EVQLQQSGPELEKPGASVKISCKASGYSFTGYNMNWVKQSNGKSLEWIGNIDPYYGGTRYNQKFKGKATLTVDRSSSTAYMQLKSLTSEDSAVYYCARLGLGNAMDYWGQGTSVTVSS VL: DIVMTQSPSFLTVTAGEKVTMSCKSSQSLLNSGNQKSYLTWYQQKPGQPPKLLIYWASTRESGVPDRFTGSGSGTDFTLTISSVQAEDLAVYYCQNDYYYPFTFGSGTELEIK	0.98	EC50 [14]: 0.75 nM
